Laboratory results reported in patent publication CN109627340A (UNIV SHANGHAI JIAOTONG; JECHO LABORATORIES INC, dated 2019).

Molecular target: T1, 人PRLR胞外结构域 (Sino Biological) (human, UniProt P16471 25-234)
T1 construct: Bought recombinant protein (Sino Biological); also called PRLR胞外区; PRLR ECD
T1 sequence (looked up): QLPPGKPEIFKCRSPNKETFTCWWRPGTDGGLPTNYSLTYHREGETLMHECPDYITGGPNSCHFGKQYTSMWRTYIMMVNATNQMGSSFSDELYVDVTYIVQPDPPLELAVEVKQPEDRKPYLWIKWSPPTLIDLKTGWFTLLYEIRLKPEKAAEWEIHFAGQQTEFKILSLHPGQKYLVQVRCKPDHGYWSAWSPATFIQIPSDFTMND
Test: SPR, Biacore T200, antigen amine-coupled to CM5 chip

Kd: 2.31 nM
koff: 0.000679 s⁻¹
kon: 294000 M⁻¹ s⁻¹
B1: PRLR-DbsAb (CD3×PRLR双特异性抗体) (bispecific antibody, human IgG1, kappa)
heavy 1: not shown
light 1: DIQMTQSPSSLSASVGDRVTITCSASSSVSYMNWYQQTPGKAPKRWIYDTSKLASGVPSRFSGSGSGTDYTFTISSLQPEDIATYYCQQWSSNPFTFGQGTKLQITRTVAAPSVFIFPPSDEQLKSGTASVVCLLNNFYPREAKVQWKVDNALQSGNSQESVTEQDSKDSTYSLSSTLTLSKADYEKHKVYACEVTHQGLSSPVTKSFNRGEC
heavy 2: not shown
light 2: not shown
notes: also called PRLR-DsbAb; CD3和PRLR双特异性抗体
